The values that follow come from PMC5861037.

Series [1] addresses DosR K182Q K182Q (Mycobacterium tuberculosis H37Rv) (UniProt P9WMF9). The experiment in a line: EMSA.
Series [2] concerns the target DosR K182R K182R (Mycobacterium tuberculosis H37Rv) (UniProt P9WMF9). The experiment in a line: EMSA.

As for “TTGATGCCTCCTAATCGATGGAAACGGATGCCTTTGATCCGACCAGCCCATCGTGGCCAGGGCTAGGGACAGAAGTCCCCGAAGCGCGGGCCATTTGTCCGCGCCCGTCGGTGATCCACTTGGGGACCATTGACCCTGTTGTCTGCCA (double strand) [acr promoter fragment]”, the values for the binding entry in series [1] and in series [2] were “binds more weakly” and “binds”, respectively.
